This note sets out measurements from the nanobody polyreactivity screen of Harvey et al. (2022).

The series can be described thus: yeast display, Sf9 membrane polyspecificity reagent, FACS + sequencing; frameworks hold sequencing errors. A digest of the protocol: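 Nanobodies came from a synthetic yeast display library in Saccharomyces cerevisiae BJ5465, induced with galactose for 36–48 hours and stained for 1 hour at 4 °C with 10% biotinylated, detergent-solubilized Sf9 membrane reagent. Cells were enriched on streptavidin microbeads and then FACS-sorted, with low and high (top ~1%) gates set on anti-HA fluorescence for expression and streptavidin fluorescence for reagent binding. Each polyreactivity label reflects the gate a clone came from. Genes were amplified by colony PCR, sequenced by MiSeq 2 × 250 and filtered by CDR length.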
As for “QVQLVESGGGLVQAGGRLRLSCAPSGIIFQQYAMGWYRQAPGKERELVAAISRGGTRTYYADSVKGRFTISRDNAKNTVYLLMNSLKPEDTAVDYCAADRGYFSYDYWGQGTQVTVSS”, the “polyreactivity (PSR sort gate)” value is “high polyreactivity”.

Regarding “QVQLVESGGGLVQAGGRLRLSCAPSGSTFPPYAMGWYRQAPGKERELVADITRRGASTYYADSVKGRFTISRDNAKNTVYLQMNSLKPEDTAVYYCAARFYYQYYSGFDYWGQGTQVTVST”, the “polyreactivity (PSR sort gate)” value is listed as “high polyreactivity”.

Take “QVQLVESGGGLVQAGGRLRLSCPASGGTFGYNAMGWYRQAPGKERELVAAIRNGGSTYFADSVKGRFTISRDNAKNTVYLQMNSLKPEESAVYYCAAGPRGTGKYYWGQGTQVTVSS”: the “polyreactivity (PSR sort gate)” value is on record as “high polyreactivity”.

Take “QVQLVESGGGLVQAGGRLRLSCPASGRIFSLYAMGWYRQAPGKERELVAVISSTGVSSHYADSVKGRFTISRDNAKYTVYLLMNSLNPEDTAVYYCNARWSFPRWGYEYGYWGQGTQVTVSS”: the “polyreactivity (PSR sort gate)” value is “high polyreactivity”.

Consider “QVQLVESGGGLVQAGGRLRLSCPASGRTFRGYARGWYRQAPRKERELLAAITSGGSTNYADSVKGRFTISRDNAKNTVYLQKKSLKPEDTAVYYCAADSWFYGGEYKLGYYWGQGTQVSVSS”, for which the “polyreactivity (PSR sort gate)” value is listed as “low polyreactivity”.

“QVQLVESGGGLVQAGGRLRLSFAASGITFYVYTMGWYRQAPGKERELVPAISTTGSTNYADSVKGRFTISRDNAKNTVYLQMNSLKPEDTAVYYCNAKYYWLVFEYDYWGQGTQVTVSS”: the “polyreactivity (PSR sort gate)” value was “high polyreactivity”.

For “QVQLVESGGGLVQAGGRLRLSGAASGSIYFRNVMGWYRQAPGKERELVAAITWSGGGTYYPDSVKGRFTISRDNAKNTVYLQMNSLQPEDTAFYYCAARSPTIRYGAGYWGQVTQVTVSS”, the “polyreactivity (PSR sort gate)” value is “low polyreactivity”.

On to “QVQLVESGGGLVQAGGRLRLSGAASGSTFGGYAMGWYRQAPGKERELVASINYGGDTTYYADSVKGRFTISRDNAKNTVYLQMNSLKPEDTAVYYCATDGTTPTPRYAFVRFDHWGQGTQVTVSS”, for which the “polyreactivity (PSR sort gate)” value is reported as “low polyreactivity”.

As for “QVQLVESGGGLVQAGGRLRLSSAASGRIFTNYAMGWYRQAPGKERELVARISKRGGSTYYADSVKGRLTFSRDNAKNTVYLQMNSLKPEDTAVYYCNAVSNLYYYWGQGTQVTVSS”, the “polyreactivity (PSR sort gate)” value is on record as “high polyreactivity”.

On to “QVQLVESGGGLVQAGGRLRLSSAASGSTFPYNAMGWYRQAPGKERELVADITSGSSTYYADSGKGRFTISRDNAKNTVYLQMNSLKPEDTAVYYCAATYFVWLNAGGRGYWGQGTQVTVSS”, for which the “polyreactivity (PSR sort gate)” value is “low polyreactivity”.

Take “QVQLVESGGGLVQAGGRLRLTCAASGFIFGYYTMGWYRQAPGKERELVASITRGGSTNYADSVKGRFTISRDNAKNTVYLQMNSLKPEDTAVYYCAKRYAQTYSVSRYYYWGQGTQVTVSS”: the “polyreactivity (PSR sort gate)” value was “high polyreactivity”.

With “QVQLVESGGGLVQAGGRLRLTCAASGSIFGTYAMGWYRQAPGKERELVAAINSGDSTYYADSVKGRFTISRDNAKNTVYLQMNSLKPEDTAVYYCAAGRYWPGDYWGQGTQVTVSS”, the “polyreactivity (PSR sort gate)” value is reported as “high polyreactivity”.

Consider “QVQLVESGGGLVQAGGRLRLTCAASGSIFWSNAMGLYRQAPGKERELVAAITSGGSTYYADSVKGRFTISRDNAKNTVYLQMNSLKPEDTAVYYCAARPEVRHQYRRYDYWGQGTQVTVSS”, for which the “polyreactivity (PSR sort gate)” value is reported as “low polyreactivity”.

For the sequence “QVQLVESGGGLVQAGGRLSLSCAASGSIFSIYAMGWYRPSPGKERELVSGIRSTVSTNYADSVKGRFTISRDNAKNTVYLQMNSLKPEDTAVYYCATGTPTAPGNYWGQGTQVTVSS”, the “polyreactivity (PSR sort gate)” value is “low polyreactivity”.

As for “QVQLVESGGGLVQAGGSHRLICAASGFIVSYHAMGWYRPAPGKESELVAAISSRGGSTYYADSVKGRFTISRDNAKNTVYLQMNSLKPEDTAVYYCATAGLTYRALRYYWGQGTQVTVSS”, the “polyreactivity (PSR sort gate)” value is on record as “high polyreactivity”.

For “QVQLVESGGGLVQAGGSHRLSCAASGFTFVYYAMGWYRQAPGKERELVAAISARTSGTYYADSVKGRFTISRDNAKNTVYLQMNSLTPEDTAVYYCAAGYSYVYWSESAYDYWGQGTQVTVSS”, the “polyreactivity (PSR sort gate)” value is recorded as “low polyreactivity”.

Consider “QVQLVESGGGLVQAGGSHRLSCAASGFTIYGNAMGWYRQAPGKERELVAAISGSGGITYYADSVKGRFTISRDNAKNTVYLQMNSLKPEDTAVYYCAAEFWVSRSIWLYYYWGQGTQVTVSS”, for which the “polyreactivity (PSR sort gate)” value was “high polyreactivity”.

Regarding “QVQLVESGGGLVQAGGSHRLSCAASGGTFRSNAMGWYRQAPGKERELVAAITSNGGRTYYADSVKGRFTISRDNAKNTVYLQMNSLKPEDTAVYYCAALGGYRRPLYGYDYWGQGTQVTVSS”, the “polyreactivity (PSR sort gate)” value is reported as “high polyreactivity”.

With “QVQLVESGGGLVQAGGSHRLSCAASGGTFYYYTMGWYRQAPGKERELVAAISWSGGSTYYADSVKGRFTISRNNEKNTVYLQMKSLKPEDSAVYYCNAVYAGRFGSHYWGQCTQVTVSS”, the “polyreactivity (PSR sort gate)” value is “high polyreactivity”.

As to “QVQLVESGGGLVQAGGSHRLSCAASGIIFRFYAMGCYRQAPGTERELVAAITSSGGSTYYADSVKGRFTISRDNAKNTVYLQMNSLNPEDTAVYYCYARVFSQSHYYYWGQGTQVTLSS”, the “polyreactivity (PSR sort gate)” value is listed as “high polyreactivity”.

For “QVQLVESGGGLVQAGGSHRLSCAASGIISPFYAMGWYRQAPGKERELVADISTGGTTTYADSVKGRFTISRDNAKNTVYLQMNSLKPEDTAVYYCNAEVSLTYYWIVWASYDYWGQGTQVTVSS”, the “polyreactivity (PSR sort gate)” value is listed as “low polyreactivity”.

In the case of “QVQLVESGGGLVQAGGSHRLSCAASGITFRRYAMGWYRQAPGKERELVARITDRGSTYYADSVKGRFTSSRDNAKNTVYLQMNSLKPEDTAVYYCAARGYRGLVQLRYGYWGQGTQVTVSS”, the “polyreactivity (PSR sort gate)” value is “high polyreactivity”.

For “QVQLVESGGGLVQAGGSHRLSCAASGITFRWYTMGWYRQAPGKERELVAAITGSGCTTYYADSVKGRFTISRDNAKNNVYLQMYSLKPEDSAVYYCAAEFYGLVYVPPYDYWGQGTQVTVSS”, the “polyreactivity (PSR sort gate)” value is on record as “high polyreactivity”.

Regarding “QVQLVESGGGLVQAGGSHRLSCAASGLNFGDNTMGWYRQAPGKERELVAAISGDVITTYADSVKGRFTISRDNAKNTVYLQMNSLKPEDTAVYYCNAEVKRYYSGLPQYFAGLGYWGQGTQVTVSS”, the “polyreactivity (PSR sort gate)” value was “low polyreactivity”.

With “QVQLVESGGGLVQAGGSHRLSCAASGLTFRKYAMGWYRQAPGKERELVATISRNGGSTYYADSVKGRFTISRDNAKNTVYLQMNSLKPEDTAVYYCAADYYTYDYAGYGDWGQGTQVTVSS”, the “polyreactivity (PSR sort gate)” value was “high polyreactivity”.

Consider “QVQLVESGGGLVQAGGSHRLSCAASGNTFYDYAMGWYRQAPGKERELVAAISSDGNTYYADSVKGRFTFSRDNAKKTVYLQMNSLKPVDTAVYYCAADAWRYYYLSWFGSIGFDYWGQGTQVTVSS”, for which the “polyreactivity (PSR sort gate)” value was “high polyreactivity”.

Consider “QVQLVESGGGLVQAGGSHRLSCAASGRIFDKYAMGWYRQAPGKERELVATITSSGGSTYYADSVKGRFTISRDNAKNTVYLQMNSLKPEDTAVYYCAALDRTGWGYDYWGQGTQVTVSS”, for which the “polyreactivity (PSR sort gate)” value is “low polyreactivity”.

With “QVQLVESGGGLVQAGGSHRLSCAASGRIFGPYTMGWYRQAPGKERELVAAISLSGGSTYYADSVKGRFTISRDNAKNTVYLQMNRLKAEDTAVYYCNADHPFPQYEGGSWGQGTQVTVSS”, the “polyreactivity (PSR sort gate)” value was “low polyreactivity”.

Take “QVQLVESGGGLVQAGGSHRLSCAASGRIFSYNSMGWYRQAPGKERELVAAITSGGSTYYADSVKGRFTISRDNAKNTVYLQMNSLKPEDTAVYYCAVRSYYFVSRYTRTLYGFDYWGQGTQVTVSS”: the “polyreactivity (PSR sort gate)” value was “low polyreactivity”.

As for “QVQLVESGGGLVQAGGSHRLSCAASGRIIHGYAMGWYRQAPGKERELVARISFSGGRTYYADSVKGRFTISRDNAKNTVYLQKNSLIPEDTAVYYCNVRVWSYYYPGRDSDYWGQGTQVTVSS”, the “polyreactivity (PSR sort gate)” value is recorded as “high polyreactivity”.

For the sequence “QVQLVESGGGLVQAGGSHRLSCAASGRPSAVNALGWSRQAPGKERELVAAITYGGDSTFYADSVKGRFTISRDNAKNTVYLQMNSLKPEDTAVYYCNADIWFIWHSFGWGYDYWGQGTQVTVSS”, the “polyreactivity (PSR sort gate)” value was “low polyreactivity”.

Consider “QVQLVESGGGLVQAGGSHRLSCAASGRTFRYNAMGWYRQAPGKERELVAAISGRGSSTYYADSVKGRFTISRDNAMNTVYLQMNSLKPEETAVYYCAALPASVRRPGWHDYWGQGTQVTVSS”, for which the “polyreactivity (PSR sort gate)” value is recorded as “high polyreactivity”.

Take “QVQLVESGGGLVQAGGSHRLSCAASGRTFYRYPMGWYRQAPGKERELVATINSGTSTSYADSVKGRFTISRDNAKYTVYLQMNSLKPEDTAVYYCAAKLWTLSFSSRFGGMYYWGQGTQVTVSS”: the “polyreactivity (PSR sort gate)” value is listed as “high polyreactivity”.

“QVQLVESGGGLVQAGGSHRLSCAASGRTFYSYPMGWYRQAPGKEREIVAAIHWSGTTTYADSVKGRFTISRDNAKNTVYLEMNSLKPDATAVYYCAADRVSYIGAGWFDYWGQGTQVTVSS”: the “polyreactivity (PSR sort gate)” value is reported as “high polyreactivity”.

“QVQLVESGGGLVQAGGSHRLSCAASGSIFAIYAMGWYRQAPGKERELVAAISSSSGSTYYADSVKGRFTISRDNAKNTVYLQMNSLKPEDTAVYYCAAESGRRIKYWRGYYYWGQGTQVTVSS”: the “polyreactivity (PSR sort gate)” value is listed as “low polyreactivity”.

For the sequence “QVQLVESGGGLVQAGGSHRLSCAASGSIFRSYAMGWYRQAPGKERELVASISRRGGSTYYADSVKGRFTISRDNAKNTVYLQMNSLIPEDTAVYYCAAVRYNSRVSTTPSEMYYWGQGTQVTVSS”, the “polyreactivity (PSR sort gate)” value is “low polyreactivity”.

Take “QVQLVESGGGLVQAGGSHRLSCAASGSIFTINPMGWYRQAPGKERELVAAIRSGGGTNYADSVKGRFTISRDNAKNTVYLQMISLKPEDTAVYYCAADLWAGKYGEYDYWGQGTQVTVSS”: the “polyreactivity (PSR sort gate)” value was “high polyreactivity”.

For “QVQLVESGGGLVQAGGSHRLSCAASGSIFTWNGMGWYRQAPGKERELVAAISNGASTNYADSVKGRFTISRDNAKNTVYLQMNSLKPEDTEVDYCAAKSTGRYDYWGQGTQVTVSS”, the “polyreactivity (PSR sort gate)” value is on record as “low polyreactivity”.

Consider “QVQLVESGGGLVQAGGSHRLSCAASGSIFVYNAMGCYIQAPGKERELVAGITFIGGSTYYADSVKGRFTISRDNAKNTVYLQMNSLKPEDTAVYYCNADVAPGIFYGYDSWGQGTQVTVSS”, for which the “polyreactivity (PSR sort gate)” value was “low polyreactivity”.

Take “QVQLVESGGGLVQAGGSHRLSCAASGSTFKNYPMGGYRQAPGQEREFVAAINVSGARTYYADSVKGRFTISRDNAKNTVYLQMNSLKPEDTAVYYCAAYYSGVGYDYWGQGTQVTVSS”: the “polyreactivity (PSR sort gate)” value is listed as “high polyreactivity”.
